This assay deals with GST-ZZS05 fusion protein (UniProt P08515 1-218 = GST). The experiment in a line: Biacore SPR as in Example 3.3. On the technique in general: SPR reads the build-up and loss of mass on a sensor chip optically.

Broadly, the Kd is the free concentration of one partner at which half of the binding sites on the other are occupied at equilibrium, for simple one-to-one binding. A higher Kd goes with lower affinity.

Chain of GST-ZZS05 fusion protein (P08515 1-218, tags or fused parts left off): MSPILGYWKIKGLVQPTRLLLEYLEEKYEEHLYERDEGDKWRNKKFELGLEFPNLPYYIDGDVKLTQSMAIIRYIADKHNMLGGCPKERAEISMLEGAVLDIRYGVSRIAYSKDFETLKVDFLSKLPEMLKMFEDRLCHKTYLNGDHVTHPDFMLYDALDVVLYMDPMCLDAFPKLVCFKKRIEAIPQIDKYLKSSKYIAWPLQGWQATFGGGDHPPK

B1: h29 (antibody, V domains shown)
VH: QVQLVESGGGVVQPGRSLTLSCAASGFTFSRYGMHWVRQAPGKGLEWVTVITYDGRKKYYADSVKGRFTISRDNSQNTLSLQMNSLRAEDTAVYYCAKDLLIGYGMDVWGQGTTVTVSS
VL: DIVMTQSPDSLAVSLGERATIKCKSSQSVFFSSSNKNFLTWYQQKPGQPPKLLIYWASTRESGVPDRFSGSGSGTDFTLTINNLQAEDVTVYYCQQCFSTPYSFGQGTKLEIKR
In turn, B1 came in with an equilibrium dissociation constant (Kd) of 1.2 nM.

For the origin of these results see patent EP4752156A1 (Shanghai Yunxuan Biotechnologies, Inc., dated 2026).
